Laboratory results published in US20240182585A1 (CAMBRIDGE ENTERPRISE, published 2024).

B1: QUEL-0301 (antibody, V domains shown)
VH: EVQLVESGGGLVQPGGSLRLSCAASGFTFSNSWMNWVRQTPGKGLEWVANIDQDGDQKYYVDSVKGRFTISRDNAKNSLYLQMNSLRAEDTAVYYCAREITGTTFDYWGQGTLVTVSS
VL: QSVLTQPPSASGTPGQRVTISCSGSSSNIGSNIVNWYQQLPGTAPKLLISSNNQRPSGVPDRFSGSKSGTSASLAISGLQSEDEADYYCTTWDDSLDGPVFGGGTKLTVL
notes: the antibody was captured via anti-human Fc antibody
B2: QUEL-0201 (antibody, V domains shown)
VH: QVQLVQSGAEVKEPGASVRVSCKASGYTFISHAIHWVRQAPGQRLEWMGWINAVNGNTKYSQKFQDRVTFTRDTSASTAYMDLNSLRAEDTALYYCAREGYTYGVHYSYGMDVWGQGTTVTVSS
VL: QSVLTQPPSVSGAPGQRVTISCTGSSSNIGAGYDVHWYQQLPGTVLKLLIYGNNNRPSGVPDRFSGSNSGTSASLAITGLQPEDEADYYCQSYDSSLSGYWVFGGGTKLTVL
notes: as for B1
B3: recombinant human GDF15 protein with 6-His tag (R&D Systems, 957-GD) (ligand, UniProt Q99988 197-308, looked up)
chain: ARNGDHCPLGPGRCCRLHTVRASLEDLGWADWVLSPREVQVTMCIGACPSQFRAANMHAQIKTSLHRLKPDTVPAPCCVPASYNPMVLIQKTDTGVSLQTYDDLLAKDCHCI
B4: QUEL-0101 (antibody, V domains shown)
VH: QVQLVESGGGVVQPGRSLRLSCAASGFAFNNYGMHWVRQGPGRGLEWVAIISYDGTTQYSVDSVKGRFTISRDNSKNTLYLQMNSLRTEDTALYYCAKEAGDFYGSGNYGYHKYGLDVWGQGTTVTVSS
VL: DIQMTQSPSSLSASVGDRVTITCRASQDISNYLAWYQQKPGKIPKLLIYAASTLQSGVPSRFSGSGSGTDFTLTISSLQPEDVASYYCQKYSSAPLTFGGGTKVEIK
notes: as for B1

Columns and labels:
[1] = target: T1, human GFRAL expressed on the surface of HEK293 cells (co-expressed with human RET) (human, UniProt Q6UXV0 19-394); experiment: cell-based or functional assay
T1 sequence: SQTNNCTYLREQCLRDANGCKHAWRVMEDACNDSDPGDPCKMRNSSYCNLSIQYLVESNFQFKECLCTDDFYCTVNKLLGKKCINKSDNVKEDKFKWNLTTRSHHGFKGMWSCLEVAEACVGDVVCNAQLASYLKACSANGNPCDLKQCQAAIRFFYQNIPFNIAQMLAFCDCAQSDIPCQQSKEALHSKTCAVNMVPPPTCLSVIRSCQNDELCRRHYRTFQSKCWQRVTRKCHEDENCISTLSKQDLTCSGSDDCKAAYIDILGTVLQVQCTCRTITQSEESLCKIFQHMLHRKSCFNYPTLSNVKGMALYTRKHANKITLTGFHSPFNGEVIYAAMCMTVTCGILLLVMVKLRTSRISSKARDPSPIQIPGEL

[2] = target: T2, His-tagged human GFRAL (recombinant soluble GFRAL protein, R&D catalogue no. 9647-GR-050) (human, UniProt Q6UXV0 19-351); experiment: SPR, antibody captured via anti-human Fc on CM4 chip, His-tagged human GFRAL as analyte, 25 C, 1:1 model
T2 construct: Bought soluble protein; also called Human GFRAL with a 6His tag; GFRAL antigen; not shown: 6His tag
T2 sequence: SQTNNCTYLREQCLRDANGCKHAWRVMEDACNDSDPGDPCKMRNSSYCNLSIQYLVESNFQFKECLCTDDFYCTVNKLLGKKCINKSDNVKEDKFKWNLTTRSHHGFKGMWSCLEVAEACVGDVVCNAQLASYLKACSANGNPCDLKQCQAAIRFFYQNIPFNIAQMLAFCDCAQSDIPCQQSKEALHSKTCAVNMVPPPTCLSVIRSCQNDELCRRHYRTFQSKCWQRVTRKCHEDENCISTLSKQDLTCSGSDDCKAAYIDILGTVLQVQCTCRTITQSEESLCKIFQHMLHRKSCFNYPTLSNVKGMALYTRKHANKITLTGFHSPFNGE
Protocol: (§1) Binding of antibodies to human GFRAL was measured by SPR using His-tagged human GFRAL as analyte, and test antibody coupled to the surface of a CM4 biosensor chip via immobilised anti-human Fc antibody. Running buffer was HBS-P+ buffer pH 7.4 (GE BR100671) with 1 mM CaCl₂. Antibodies were captured for 60 seconds at 1 μg/ml (˜80-140 RU captured, depending on the binder). Analyte (recombinant soluble GFRAL protein, R&D catalogue no. 9647-GR-050) was injected at 100, 25, 6.25, 1.56, 0.39, 0.098, 0.024 and 0 nM for 120 seconds association time at […] and dissociation was monitored for 1200 seconds. The chip surface was regenerated using 10 mM glycine pH 1.5. All experiments were performed at 25° C. Sensorgrams for each antibody were double subtracted (reference cell and 0 concentration). Data were fitted to a 1:1 binding interaction model. Sensorgrams were fitted using multiple cycle kinetics mode. […] FIG. 5.

[3] = target: T2, His-tagged human GFRAL (recombinant …); experiment: SPR sandwich assay: row antibody captured via anti-Fc, GFRAL antigen added, then mAbQ injected as analyte (competitor: mAb Q)
Protocol: (§2) In this assay, pairs of antibodies are tested for their ability to simultaneously bind antigen. A first antibody is coupled via its Fc region to a solid support and the GFRAL antigen is added in solution, allowing formation of an antibody-antigen complex. A second antibody is then added in solution.

[4] = target: T2, His-tagged human GFRAL (recombinant …); experiment: SPR, KD for human GFRAL of QUEL-0301 compared with reference antibody mAb Q
[5] = target: T2, His-tagged human GFRAL (recombinant …); experiment: SPR sandwich assay: row antibody captured via anti-Fc, GFRAL antigen added, then GDF15 injected as analyte (competitor: GDF15)
Protocol: as §2
The same principle may be used to assess whether an antibody and a native ligand compete for binding to antigen. Thus, a test antibody is coupled to a solid support and the GFRAL antigen is added in solution, allowing formation of an antibody-GFRAL complex. GDF15 is then added in solution.

[6] = target: T3, mouse GFRAL-Fc fusion (R&D catalogue no. 9844-GR-050050) (mouse, UniProt Q6SJE0 20-349); experiment: SPR, antibody captured via anti-human Fc, mouse GFRAL-Fc fusion as analyte, method of Example 2
T3 construct: Bought fusion protein; not shown: Fc part of the bought fusion
T3 sequence: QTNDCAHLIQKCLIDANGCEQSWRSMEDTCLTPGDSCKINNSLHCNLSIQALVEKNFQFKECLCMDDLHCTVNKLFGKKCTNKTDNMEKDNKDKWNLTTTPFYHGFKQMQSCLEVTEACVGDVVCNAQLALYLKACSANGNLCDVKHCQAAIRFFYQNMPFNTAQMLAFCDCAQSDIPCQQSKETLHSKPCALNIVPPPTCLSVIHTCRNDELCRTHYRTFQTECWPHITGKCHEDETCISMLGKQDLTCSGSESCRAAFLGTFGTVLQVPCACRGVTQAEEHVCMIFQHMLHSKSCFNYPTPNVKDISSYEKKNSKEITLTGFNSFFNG
Protocol: as §1
Affinity for mouse GFRAL was determined by SPR by the same method as in Example 2 using a mouse GFRAL-Fc fusion (R&D catalogue no. 9844-GR-050050) as analyte. FIG. 6.

[7] = target: T3, mouse GFRAL-Fc fusion (R&D catalogue …); experiment: SPR, KD for mouse GFRAL compared with KD for human GFRAL
[8] = target: T1, human GFRAL expressed on the surface of …; experiment: cell-based or functional assay; remark: listed apart in the source

| Binder | IC50 (ERK phosphorylation HTRF assay, 4 nM GDF15) [1] [nM] | Kd [2] [nM] | koff [2] [s⁻¹] | kon [2] [M⁻¹ s⁻¹] | resonance units after mAbQ injection [3] [resonance units] | fold difference in affinity against mAb Q [4] [fold] | resonance units after GDF15 injection [5] [resonance units] | Kd [6] [nM] | koff [6] [s⁻¹] | kon [6] [M⁻¹ s⁻¹] | fold difference in affinity, human against mouse GFRAL [7] [fold] | EC50 (read off the curve) [8] [nM] |
| --- | --- | --- | --- | --- | --- | --- | --- | --- | --- | --- | --- | --- |
| B1 | 9.4 | 0.000988 | 9.72e-06 | 9.83e+06 | 298 | ~4 | 77.3 | 4.95 | 0.000524 | 106000 | – | – |
| B2 | 8.6 | 0.0839 | 6.19e-05 | 738000 | 268 | – | 83.9 | 0.0648 | 9.9e-06 | 153000 | ≤ 1.5 | – |
| B3 | – | – | – | – | – | – | – | – | – | – | – | ~1 |
| B4 | 2.8 | 0.14 | 7.87e-05 | 561000 | 306 | – | 87.3 | 1.19 | 0.000112 | 93700 | ≤ 10 | – |
